Percent of Phl p 5-specific IgE preabsorbed data for 1 molecule are collected here from patent publication US20030077290A1.

The target of this test is serum IgE from grass pollen allergic patients (171 sera). Nature of the test: ELISA competition; sera preabsorbed with rPhl p 6, IgE binding to rPhl p 5. Background: In an ELISA, binding on a coated surface is turned into a signal by an enzyme label.

B1: recombinant Phl p 6 (protein)
chain: GKATTEEQKLIEDINASFRAAMATTANVPPADKYKTFEAAFTVSSKRNLADAVSKAPQLVPKLDEVYNAAYNAADHAAPEDKYEAFVLHFSEALHIIAGTPEVHAVKPGA
For the molecule B1, the percent of Phl p 5-specific IgE preabsorbed is < 20%.
